Source: patent publication US11306331B2, “Processes for the production of hydroxycinnamic acids using polypeptides having tyrosine ammonia lyase activity” (CysBio ApS, priority 2014, dated 2022)

T1: Rhodobacter sphaeroides RsTAL (Protein GI 126464011), His-tagged (N-terminal tag SEQ ID NO: 11) (Cereibacter sphaeroides, UniProt Q3IWB0)
T1 sequence (Q3IWB0 1-523): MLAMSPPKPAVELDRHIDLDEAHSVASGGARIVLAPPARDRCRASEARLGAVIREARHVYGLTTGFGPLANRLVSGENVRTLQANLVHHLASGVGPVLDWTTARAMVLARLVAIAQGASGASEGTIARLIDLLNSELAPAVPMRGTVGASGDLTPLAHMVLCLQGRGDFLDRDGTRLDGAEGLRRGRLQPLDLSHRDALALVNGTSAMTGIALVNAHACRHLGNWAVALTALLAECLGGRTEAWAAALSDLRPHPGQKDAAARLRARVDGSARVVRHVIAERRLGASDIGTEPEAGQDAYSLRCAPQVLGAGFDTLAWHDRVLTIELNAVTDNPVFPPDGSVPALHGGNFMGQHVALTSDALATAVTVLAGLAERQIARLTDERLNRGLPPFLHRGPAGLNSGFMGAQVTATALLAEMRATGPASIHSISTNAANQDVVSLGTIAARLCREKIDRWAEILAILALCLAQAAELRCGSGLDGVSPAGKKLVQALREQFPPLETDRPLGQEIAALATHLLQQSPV

B1: Flavobacterium johnsoniae FjXAL tyrosine ammonia lyase (Protein GI 146298870), SEQ ID NO: 1, His-tagged (N-terminal tag SEQ ID NO: 11) (Flavobacterium … (protein)
chain: MNTINEYLSLEEFEAIIFGNQKVTISDVVVNRVNESFNFLKEFSGNKVIYGVNTGFGPMAQYRIKESDQIQLQYNLIRSHSSGTGKPLSPVCAKAAILARLNTLSLGNSGVHPSVINLMSELINKDITPLIFEHGGVGASGDLVQLSHLALVLIGEGEVFYKGERRPTPEVFEIEGLKPIQVEIREGLALINGTSVMTGIGVVNVYHAKKLLDWSLKSSCAINELVQAYDDHFSAELNQTKRHKGQQEIALKMRQNLSDSTLIRKREDHLYSGENTEEIFKEKVQEYYSLRCVPQILGPVLETINNVASILEDEFNSANDNPIIDVKNQHVYHGGNFHGDYISLEMDKLKIVITKLTMLAERQLNYLLNSKINELLPPFVNLGTLGFNFGMQGVQFTATSTTAESQMLSNPMYVHSIPNNNDNQDIVSMGTNSAVITSKVIENAFEVLAIEMITIVQAIDYLGQKDKISSVSKKWYDEIRNIIPTFKEDQVMYPFVQKVKDHLINN

How the values were obtained:
[1] = target: T1, Rhodobacter sphaeroides RsTAL (Protein GI 126464011), His-tagged (N-terminal tag SEQ ID NO: 11); experiment: In vitro kinetics of purified His-tagged RsTAL (tyrosine/phenylalanine ammonia lyase activity, absorbance at 315/295 nm)
Procedure: Four of the enzymes were further purified by His-tag purification as follows.
Strains expressing His-tagged versions of the enzymes were grown in LB media overnight at 37° C. and diluted into fresh LB media with 1 mM IPTG and growth was propagated overnight (approximately 18 h) at 30° C. Cells were harvested by centrifugation at 8000 rpm for 8 minutes, and disrupted by shearing into a buffer (50 mM Tris-HCl, 10 mM imidazole, 500 mM NaCl, 10% glycerol, pH 7.5). The homogenate was clarified by centrifugation at 10000 g for 10 min at 4° C., and the supernatant was loaded onto Ni2+-NTA resin column on an Äkta Pure system connected to a F9-C fraction collector (GE). Finally the fractions containing the purified polypeptide was dialyzed overnight against a buffer containing 50 mM Tris-HCl pH 7.5, 150 mM NaCl and 10% glycerol, flash-frozen in liquid nitrogen and stored at −80° C.
Enzymatic assays were performed in 200 μL volumes in wells in a UV transparent 96-well plate, by following the increase in absorbance at 315 nm (pHCA) or 295 nm (CA). The reaction mixtures contained 2 μg of purified protein and were initiated by adding 1 mM tyrosine or 6 mM after equilibration to 30° C. The enzymatic activity was calculated as U/g, where U is defined as μmol substrate converted per minute.

[2] = system: E. coli BL21(DE3)pLysS cells; experiment: Specific production of pHCA and CA by E. coli expressing TAL/PAL enzymes; assay type: cell-based, Escherichia coli; settings: 24 h after supplementation, +/- standard deviation
Procedure: Plasmids carrying the genes were transformed into electrocompetent E. coli BL21(DE3)pLysS cells (Life Technologies) and selected on LBplates containing 50 ug/mL streptomycin. The strains were grown in M9 minimal media containing glucose as a carbon source, and expression was induced by adding 1 mM IPTG at an optical density at 600 nm of 0.6. After three hours of growth at 30° C. the cultures were supplemented with 2 mM tyrosine, phenylalanine or histidine. After further 24 hours, samples were withdrawn for determination of the optical density at 600 nm and for the isolation of the supernatant.
The concentration of pHCA and CA in the supernatant was quantified by high performance (HPLC) and compared to chemical standards. HPLC was done on a Thermo setup using a HS-F5 column and mobile phases: 5 mM ammonium formate pH 4.0 (A) and acetonitrile (B) at 1.5 mL min-1, using a gradient elution starting at 5% B. From 0.5 min after injection to 7 min, the fraction of B increased linearly from 5% to 60%, and between 9.5 min and 9.6 the fraction of B decreased back to 5%, and remaining there until 12m pHCA and CA were quantified by measuring absorbance at 333 nm and 277 nm, respectively. The production was tested without addition of precursors or the addition of either phenylalanine or tyrosine to the growth medium.
The specific production was calculated as micromolar (μM) concentration per unit of optical density of the culture at 600 nm, and standard deviations were calculated based on triplicate experiments. HaXAL1, HaXAL2 and FjXAL are the most specific enzymes and those that reach the highest yields.

[3] = system: Saccharomyces cerevisiae CEN.PK102-5B; experiment: Specific production of pHCA and CA by S. cerevisiae expressing TAL enzymes; assay type: cell-based; settings: 72 h, 30° C., +/- standard deviation
Excerpt: A number of the previously characterized enzymes were characterized when expressed in Saccharomyces cerevisiae. Genes encoding HaXAL1 and FjXAL were synthesized with codon optimization for S. cerevisiae available by GeneArt (Life Technologies), and were named HaXAL1 Sc and FjXALSc. Genes were amplified using the oligonucleotide (refer to specific name) shown in Table 6, and inserted by uracil-excision into the vector pCfB132 together with the PPGK1 promoter amplified by primers PPGK1_fw and PPGK1_rv (Jensen et al., 2014). The finished plasmids were transformed into Saccharomyces cerevisiae CEN.PK102-5B (MAT a ura3-52 his3Δ1 leu2-3/112 MAL2-8c SUC2) using a standard lithium acetate transformation protocol and selected for on synthetic drop-out media plates lacking uracil.
Cells were grown in SC medium without uracil, and diluted into Delft medium or Feed-In-Time (FIT) medium (m2p-labs) supplemented with leucine and histidine. After 72 h of incubation at 30° C. with shaking, samples were taken for the analysis of optical density at 600 nm and for clarification of the supernatant, which was analyzed by HPLC as described in example 1. The specific production was calculated as micromolar (μM) concentration per unit of optical density of the culture at 600 nm and is shown in Table 4.

Molecule	Kcat ([1]; 30° C, 1.56 μM to 200 μM tyrosine or 193 μM to 25 mM phenylalanine)	TAL/PAL ([1]; ratio of Kcat/Km for Tyr over Phe)	Specific production of CA ([2]; M9 + His (2 mM))	Specific production of pHCA ([2]; M9 + His (2 mM))	Specific production of CA ([2]; M9 + Phe (2 mM))	Specific production of pHCA ([2]; M9 + Phe (2 mM))	Specific production of CA ([2]; M9 + Tyr (2 mM))	Specific production of pHCA ([2]; M9 + Tyr (2 mM))	Specific production of CA ([3]; Delft + Tyr (10 mM))	Specific production of pHCA ([3]; Delft + Tyr (10 mM))	Specific production of CA ([3]; Delft medium)	Specific production of pHCA ([3]; Delft medium)	Specific production of CA ([3]; FIT + Tyr (10 mM))	Specific production of pHCA ([3]; FIT + Tyr (10 mM))	Specific production of CA ([3]; FIT medium)	Specific production of pHCA ([3]; FIT medium)
N[C@@H](Cc1ccc(O)cc1)C(=O)O [Tyr, tyrosine]	0.173 s⁻¹	125														
B1			0 ± 0 μM OD600-1	91 ± 20 μM OD600-1	0.5 ± 0.4 μM OD600-1	76 ± 29 μM OD600-1	0 ± 0 μM OD600-1	440 ± 100 μM OD600-1	0 ± 0 μM OD600-1	120 ± 16 μM OD600-1	0 ± 0 μM OD600-1	30 ± 3.5 μM OD600-1	0 ± 0 μM OD600-1	120 ± 19 μM OD600-1	0 ± 0 μM OD600-1	130 ± 16 μM OD600-1
